Measured values as given in patent publication US20080213836.

What was measured:
[1] = biological target: recombinant fusion protein of Medaka trypsinogen
Z-Phe-Arg-MCA = biological target: T1, Z-Phe-Arg-MCA
T1 chain: FR

[2] = biological target: human single-chain tPA fusion protein with N-terminal His-tag/EP-cleavage site, P00750
[3] = biological target: D4K-cleavage site-containing control protein (Novagen)
Pro-Phe-Arg-MCA = biological target: T2, Pro-Phe-Arg-MCA
T2 chain: PFR

[4] = biological target: T3, Boc-Glu(OBzl)-Ala-Arg-MCA
T3 chain: EAR

[5] = biological target: recombinant fusion protein of Medaka gelatinase A
[6] = biological target: T4, Gly-Asp-Asp-Asp-Asp-Lys-β-naphthylamide
T4 chain: GDDDDK

[7] = biological target: Human plasma fibronectin, P02751
Human plasma fibronectin, P02751, sequence (P02751 other isoform, or with tags, fused parts or gaps): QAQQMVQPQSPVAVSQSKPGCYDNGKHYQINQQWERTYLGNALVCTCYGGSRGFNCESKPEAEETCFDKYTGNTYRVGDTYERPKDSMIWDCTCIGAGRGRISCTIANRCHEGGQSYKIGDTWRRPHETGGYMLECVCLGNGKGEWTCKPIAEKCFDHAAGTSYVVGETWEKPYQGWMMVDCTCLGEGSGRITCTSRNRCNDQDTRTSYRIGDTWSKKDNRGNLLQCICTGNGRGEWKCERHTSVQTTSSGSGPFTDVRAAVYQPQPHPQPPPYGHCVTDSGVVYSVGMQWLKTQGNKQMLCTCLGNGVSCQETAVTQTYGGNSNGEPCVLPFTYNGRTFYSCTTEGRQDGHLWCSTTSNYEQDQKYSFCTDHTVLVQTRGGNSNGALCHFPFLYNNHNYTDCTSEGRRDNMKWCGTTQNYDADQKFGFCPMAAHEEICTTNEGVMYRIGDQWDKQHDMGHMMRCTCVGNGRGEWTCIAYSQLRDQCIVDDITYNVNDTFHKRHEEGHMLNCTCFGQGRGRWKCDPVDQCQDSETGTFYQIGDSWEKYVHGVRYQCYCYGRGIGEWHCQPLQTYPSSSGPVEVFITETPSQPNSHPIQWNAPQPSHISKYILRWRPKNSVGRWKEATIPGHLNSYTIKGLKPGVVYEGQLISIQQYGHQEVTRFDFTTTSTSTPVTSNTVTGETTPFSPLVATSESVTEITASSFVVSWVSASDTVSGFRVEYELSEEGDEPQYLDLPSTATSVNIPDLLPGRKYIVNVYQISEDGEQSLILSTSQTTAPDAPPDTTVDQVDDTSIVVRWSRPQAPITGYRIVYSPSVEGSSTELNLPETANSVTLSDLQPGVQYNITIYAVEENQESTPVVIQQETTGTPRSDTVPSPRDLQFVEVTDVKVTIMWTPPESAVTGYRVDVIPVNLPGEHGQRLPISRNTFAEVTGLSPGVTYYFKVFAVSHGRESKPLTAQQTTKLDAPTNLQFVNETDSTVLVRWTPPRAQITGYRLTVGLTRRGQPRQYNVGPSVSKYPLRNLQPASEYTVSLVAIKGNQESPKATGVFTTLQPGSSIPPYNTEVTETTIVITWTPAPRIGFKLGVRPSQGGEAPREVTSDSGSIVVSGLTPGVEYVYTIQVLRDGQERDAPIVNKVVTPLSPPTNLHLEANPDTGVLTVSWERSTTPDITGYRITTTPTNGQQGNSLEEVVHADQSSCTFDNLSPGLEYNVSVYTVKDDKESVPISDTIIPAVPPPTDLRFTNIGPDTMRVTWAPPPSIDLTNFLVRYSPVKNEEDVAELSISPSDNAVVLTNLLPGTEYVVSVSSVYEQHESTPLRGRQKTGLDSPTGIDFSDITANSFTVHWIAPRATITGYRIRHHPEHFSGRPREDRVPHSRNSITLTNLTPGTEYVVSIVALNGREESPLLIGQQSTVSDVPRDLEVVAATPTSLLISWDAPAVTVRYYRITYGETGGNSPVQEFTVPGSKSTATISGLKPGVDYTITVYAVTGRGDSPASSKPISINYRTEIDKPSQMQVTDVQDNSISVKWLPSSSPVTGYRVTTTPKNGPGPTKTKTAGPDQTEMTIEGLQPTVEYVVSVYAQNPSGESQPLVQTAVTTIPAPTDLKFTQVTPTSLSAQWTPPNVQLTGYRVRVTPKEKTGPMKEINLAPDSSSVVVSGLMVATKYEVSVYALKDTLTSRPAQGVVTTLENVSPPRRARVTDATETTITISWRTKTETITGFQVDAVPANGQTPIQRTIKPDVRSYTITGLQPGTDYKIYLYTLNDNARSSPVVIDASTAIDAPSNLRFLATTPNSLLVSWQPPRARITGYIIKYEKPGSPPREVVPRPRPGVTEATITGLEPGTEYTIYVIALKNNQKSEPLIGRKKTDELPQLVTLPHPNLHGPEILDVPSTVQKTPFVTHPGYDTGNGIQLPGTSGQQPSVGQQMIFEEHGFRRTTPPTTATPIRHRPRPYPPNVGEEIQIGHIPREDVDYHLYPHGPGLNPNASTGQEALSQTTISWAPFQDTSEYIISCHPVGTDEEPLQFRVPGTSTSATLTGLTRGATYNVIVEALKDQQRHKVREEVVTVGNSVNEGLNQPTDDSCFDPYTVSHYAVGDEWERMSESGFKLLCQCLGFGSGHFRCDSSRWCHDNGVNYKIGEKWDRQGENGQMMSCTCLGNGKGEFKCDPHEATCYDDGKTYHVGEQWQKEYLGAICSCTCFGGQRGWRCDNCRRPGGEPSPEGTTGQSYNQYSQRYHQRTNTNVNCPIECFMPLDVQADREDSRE

[8] = biological target: T5, recombinant fusion protein of human kallikrein 8 (hK8), O60259
T5 sequence (O60259 whole entry, looked up): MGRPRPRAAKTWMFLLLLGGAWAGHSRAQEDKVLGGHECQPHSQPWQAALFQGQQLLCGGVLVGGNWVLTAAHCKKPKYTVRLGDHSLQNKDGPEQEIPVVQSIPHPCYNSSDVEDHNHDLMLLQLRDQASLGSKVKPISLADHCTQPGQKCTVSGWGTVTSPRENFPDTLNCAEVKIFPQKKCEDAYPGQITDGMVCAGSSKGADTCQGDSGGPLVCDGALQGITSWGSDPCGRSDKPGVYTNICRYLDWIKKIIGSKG

[9] = biological target: T6, human high-molecular-weight (HMW) kininogen, P01042
T6 chain: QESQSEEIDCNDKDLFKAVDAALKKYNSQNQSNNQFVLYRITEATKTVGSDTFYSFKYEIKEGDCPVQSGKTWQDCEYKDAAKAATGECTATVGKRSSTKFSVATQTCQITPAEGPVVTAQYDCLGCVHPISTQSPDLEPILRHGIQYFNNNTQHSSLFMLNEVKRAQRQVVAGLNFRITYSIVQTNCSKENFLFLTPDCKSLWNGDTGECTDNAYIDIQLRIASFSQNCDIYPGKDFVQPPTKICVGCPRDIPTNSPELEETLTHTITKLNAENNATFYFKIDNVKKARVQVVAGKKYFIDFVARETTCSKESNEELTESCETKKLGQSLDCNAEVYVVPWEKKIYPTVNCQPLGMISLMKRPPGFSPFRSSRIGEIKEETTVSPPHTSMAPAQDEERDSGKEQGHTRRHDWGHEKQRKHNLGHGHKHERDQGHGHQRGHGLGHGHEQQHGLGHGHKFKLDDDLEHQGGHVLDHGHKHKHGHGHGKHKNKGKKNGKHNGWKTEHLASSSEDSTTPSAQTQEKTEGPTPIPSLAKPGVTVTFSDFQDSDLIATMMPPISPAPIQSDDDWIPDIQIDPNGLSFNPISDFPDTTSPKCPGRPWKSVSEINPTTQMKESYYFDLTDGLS

human fibrinogen, P02671 = biological target: T7, human fibrinogen, P02671
T7 chain 1: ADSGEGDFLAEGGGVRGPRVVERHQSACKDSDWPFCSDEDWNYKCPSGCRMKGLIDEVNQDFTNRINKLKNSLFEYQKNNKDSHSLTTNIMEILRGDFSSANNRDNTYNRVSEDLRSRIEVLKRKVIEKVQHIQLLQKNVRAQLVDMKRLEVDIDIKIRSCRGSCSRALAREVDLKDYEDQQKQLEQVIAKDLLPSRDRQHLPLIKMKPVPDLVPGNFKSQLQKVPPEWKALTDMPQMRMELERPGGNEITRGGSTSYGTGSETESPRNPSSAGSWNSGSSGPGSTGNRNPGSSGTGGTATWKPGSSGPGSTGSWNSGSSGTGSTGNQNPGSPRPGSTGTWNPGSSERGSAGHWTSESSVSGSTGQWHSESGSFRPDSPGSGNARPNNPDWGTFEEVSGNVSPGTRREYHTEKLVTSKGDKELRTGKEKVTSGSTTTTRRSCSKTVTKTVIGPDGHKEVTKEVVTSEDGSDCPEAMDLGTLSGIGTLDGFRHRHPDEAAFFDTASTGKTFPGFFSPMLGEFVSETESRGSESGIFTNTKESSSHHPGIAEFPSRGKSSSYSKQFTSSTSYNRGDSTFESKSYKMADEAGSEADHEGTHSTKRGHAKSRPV
T7 chain 2: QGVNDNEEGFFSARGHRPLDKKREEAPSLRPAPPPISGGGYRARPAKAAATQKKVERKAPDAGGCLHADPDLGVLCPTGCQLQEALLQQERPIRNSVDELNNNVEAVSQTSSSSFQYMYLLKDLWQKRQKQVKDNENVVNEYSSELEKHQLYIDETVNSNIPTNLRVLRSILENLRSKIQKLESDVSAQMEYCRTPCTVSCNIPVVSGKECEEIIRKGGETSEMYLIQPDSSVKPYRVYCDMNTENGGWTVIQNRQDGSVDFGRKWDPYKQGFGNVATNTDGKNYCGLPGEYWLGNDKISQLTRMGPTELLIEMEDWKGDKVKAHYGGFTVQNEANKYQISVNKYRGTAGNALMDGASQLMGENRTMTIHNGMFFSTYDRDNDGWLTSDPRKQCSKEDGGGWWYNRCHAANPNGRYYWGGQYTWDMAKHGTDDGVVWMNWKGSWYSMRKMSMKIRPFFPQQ
T7 chain 3: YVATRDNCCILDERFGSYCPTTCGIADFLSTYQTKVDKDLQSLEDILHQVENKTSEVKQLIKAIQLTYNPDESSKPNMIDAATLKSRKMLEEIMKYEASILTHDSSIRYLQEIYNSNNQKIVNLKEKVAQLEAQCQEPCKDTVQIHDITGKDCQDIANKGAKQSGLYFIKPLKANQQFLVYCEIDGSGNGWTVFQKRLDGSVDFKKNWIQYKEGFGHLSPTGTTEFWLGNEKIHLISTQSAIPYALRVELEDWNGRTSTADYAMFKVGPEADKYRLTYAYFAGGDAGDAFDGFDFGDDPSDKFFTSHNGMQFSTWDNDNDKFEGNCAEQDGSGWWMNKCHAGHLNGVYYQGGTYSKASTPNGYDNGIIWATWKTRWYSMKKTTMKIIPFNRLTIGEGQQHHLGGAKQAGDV

human single-chain tPA fusion protein with N-terminal His-tag/EP-cleavage site, P00750, sequence (P00750 whole entry, looked up, the tested form may be a part): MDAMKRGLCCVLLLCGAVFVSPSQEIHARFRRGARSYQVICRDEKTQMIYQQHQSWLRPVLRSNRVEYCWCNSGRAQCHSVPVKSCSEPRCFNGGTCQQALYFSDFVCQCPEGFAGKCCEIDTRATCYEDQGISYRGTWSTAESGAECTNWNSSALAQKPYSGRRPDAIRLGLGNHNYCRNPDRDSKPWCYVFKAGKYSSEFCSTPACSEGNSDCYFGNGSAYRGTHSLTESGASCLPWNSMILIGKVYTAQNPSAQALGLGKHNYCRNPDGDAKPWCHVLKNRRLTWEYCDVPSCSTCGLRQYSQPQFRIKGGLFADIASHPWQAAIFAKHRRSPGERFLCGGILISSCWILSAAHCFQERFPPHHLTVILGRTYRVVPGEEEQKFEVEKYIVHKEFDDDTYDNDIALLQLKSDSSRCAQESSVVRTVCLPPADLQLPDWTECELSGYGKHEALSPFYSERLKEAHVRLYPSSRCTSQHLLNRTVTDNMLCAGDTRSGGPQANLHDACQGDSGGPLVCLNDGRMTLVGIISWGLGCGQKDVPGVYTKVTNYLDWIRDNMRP

B1: Medaka EP-1 serine protease domain (wild-type) (protein)
chain: VVGGVNAEKGAWPWMVSLHWRGRHGCGASLIGRDWLLTAAHCVYGKNTHLQYWSAVLGLHAQSSMNSQEVQIRQVDRIIINKNYNRRTKEADIAMMHLQQPVNFTEWVLPVCLASEDQHFPAGRRCFIAGWGRDAEGGSLPDILQEAEVPLVDQDECQRLLPEYTFTSSMLCAGYPEGGVDSCQGDSGGPLMCLEDARWTLIGVTSFGVGCGRPERPGAYARVSAFTSWIAETRRSSFSDLD
proteolytic activity (gelatin zymography) (gelatin): Little or no hydrolysis was observed with the fish enzyme for the proteins | conversion of trypsinogen to active trypsin [1]: The trypsinogen was converted to active trypsin by EP-1 faster than by EP-2 | Km (Z-Phe-Arg-MCA): 100 µM | amidolytic activity (Z-Phe-Arg-MCA): much lower than those of the EP proteases of mammalian origin | kcat (Z-Phe-Arg-MCA): 0.0483 s⁻¹ | kcat/Km (mM^-1 · min^-1) (Z-Phe-Arg-MCA): 29 | cleavage of the fusion protein (SDS-PAGE/Western blot) [2]: The protein samples treated with the Medaka wild-type or mutant EP proteases, but not with mammalian ones, showed two polypeptides (53- and 55-kDa) | cleavage of the fusion protein (SDS-PAGE) [3]: the Medaka protease specifically cleaved the fusion protein to generate two polypeptides having expected molecular masses of 16- and 32-kDa | proteolytic activity (SDS-PAGE) (mouse laminin): Little or no hydrolysis was observed with the fish enzyme for the proteins | Km (Pro-Phe-Arg-MCA): 10000 µM | amidolytic activity (Pro-Phe-Arg-MCA): much lower than those of the EP proteases of mammalian origin | kcat (Pro-Phe-Arg-MCA): 2.33 s⁻¹ | kcat/Km (mM^-1 · min^-1) (Pro-Phe-Arg-MCA): 14 | Km [4]: 200 µM | amidolytic activity [4]: much lower than those of the EP proteases of mammalian origin | kcat [4]: 0.112 s⁻¹ | kcat/Km (mM^-1 · min^-1) [4]: 34 | cleavage of the fusion protein (SDS-PAGE) [5]: A 60-kDa fusion protein was converted by wild-type or mutant proteases to a 55-kDa protein | Km [6]: 700 µM | cleavage rate [6]: cleaved GD4K-βNA at a rate comparable to those of the porcine and bovine enzymes | enzyme activity for GD4K-βNA [6]: EP-1 was approximately three times more active than EP-2 | kcat [6]: 15.7 s⁻¹ | kcat/Km (mM^-1 · min^-1) [6]: 1300 | proteolytic activity (SDS-PAGE) [7]: Little or no hydrolysis was observed with the fish enzyme for the proteins | cleavage of the fusion protein (SDS-PAGE) [8]: Digestion with Medaka wild-type and mutant EP proteases generated 31.5-kDa active hK8 by cleaving the D4K sequence

B2: Medaka EP-1 serine protease domain mutant E173A (protein)
chain: VVGGVNAEKGAWPWMVSLHWRGRHGCGASLIGRDWLLTAAHCVYGKNTHLQYWSAVLGLHAQSSMNSQEVQIRQVDRIIINKNYNRRTKEADIAMMHLQQPVNFTEWVLPVCLASEDQHFPAGRRCFIAGWGRDAEGGSLPDILQEAEVPLVDQDACQRLLPEYTFTSSMLCAGYPEGGVDSCQGDSGGPLMCLEDARWTLIGVTSFGVGCGRPERPGAYARVSAFTSWIAETRRSSFSDLD
activation of trypsinogen [1]: the other mutants activated trypsinogen at a reduced rate | conversion of trypsinogen to active enzyme [1]: A total of 12 mutants could convert the recombinant Medaka trypsinogen to its active enzyme (data not shown) | Km (Z-Phe-Arg-MCA): 400 µM | enzyme activity against wild-type (Z-Phe-Arg-MCA): The same held true for all the other mutants except for F144A | kcat (Z-Phe-Arg-MCA): 0.0383 s⁻¹ | kcat/Km (mM^-1 · min^-1) (Z-Phe-Arg-MCA): 6 | D4K cleaving activity [2]: no serious reduction of the D4K cleaving activity for fusion proteins (gelatinase A, hK8, and tPA) | nonspecific proteolytic activity [9]: this mutant enzyme still retained a low nonspecific proteolytic activity for protein substrates (HMW kininogen and fibrinogen) | nonspecific proteolytic activity (SDS-PAGE) [9]: The mutant proteases had lower nonspecific proteolytic activity for human HMW kininogen | hydrolysis (mouse laminin): Neither human fibronectin nor laminin was hydrolyzed by the mutants (data not shown) | Km (Pro-Phe-Arg-MCA): 1000 µM | enzyme activity against wild-type (Pro-Phe-Arg-MCA): The same held true for all the other mutants except for F144A | kcat (Pro-Phe-Arg-MCA): 0.153 s⁻¹ | kcat/Km (mM^-1 · min^-1) (Pro-Phe-Arg-MCA): 9 | Km [4]: 1000 µM | enzyme activity against wild-type [4]: The same held true for all the other mutants except for F144A | kcat [4]: 0.167 s⁻¹ | kcat/Km (mM^-1 · min^-1) [4]: 10 | D4K cleaving activity [5]: no serious reduction of the D4K cleaving activity for fusion proteins (gelatinase A, hK8, and tPA) | Km [6]: 300 µM | enzyme activity against wild-type [6]: The same held true for all the other mutants except for F144A | kcat [6]: 5.33 s⁻¹ | kcat/Km (mM^-1 · min^-1) [6]: 1100 | hydrolysis [7]: Neither human fibronectin nor laminin was hydrolyzed by the mutants (data not shown) | nonspecific proteolytic activity (human fibrinogen, P02671): this mutant enzyme still retained a low nonspecific proteolytic activity for protein substrates (HMW kininogen and fibrinogen) | nonspecific proteolytic activity (SDS-PAGE) (human fibrinogen, P02671): The mutant proteases had lower nonspecific proteolytic activity for ... human fibrinogen | D4K cleaving activity [8]: no serious reduction of the D4K cleaving activity for fusion proteins (gelatinase A, hK8, and tPA)
